Experimental data taken from patent US20130101582A1, “Tiki1 and Tiki2, Wnt Inhibitors” (CHILDREN'S MEDICAL CENTER CORPORATION, priority 2010, published 2013).

Legend:
Wnt3a [1] = biological target: T1, Wnt3a (Mus musculus, UniProt P27467); assay: Metabolic labeling (az-15 / 35S) to quantify Wnt3a acylation in HEK293T cells; type: cell-based; parameters: expressed in transfected cells; host or cells: HEK293T; conditions: co-expressed with Wnt3a in HEK293T cells; versus GFP control
Description: FIG. 6E is a gel showing that Tiki2, but not the control GFP, reduces Wnt3a acylation in HEK293T cells (Top panel). The total amount of Wnt3a is constant (bottom panel).
Metabolic labeling was performed to quantify Wnt3a acylation. Wnt3a co-expressed with GFP (control) or hTiki2 in HEK293T cells was metabolically labeled with an azido-palmitic acid analog (az-15) and [^35S]-Methionine/Cysteine. Wnt3a secreted in the culture medium was immunoprecipitated and subjected to click chemistry reaction using the Rhodamine-labeled ALK reagent (ALK-Rho), which reacts with az-15 (Charron G et al., JACS 131, 4967, 2009). The fluorescent signal indicates the acylation amount of Wnt3a whereas ^35S signal indicates the total amount of Wnt3a protein (FIG. 6E). […] Thus the maximal reduction of acylation by Tiki2 is expected to be 50% if the deacylation is complete and there are only two acylation sites. The 31% reduction we observed is consistent with the possibility of three acylation sites, although it is also possible that there are only two acylation sites in Wnt3a, and Tiki2 deacylation of one of these two sites was incomplete in our experiment.

Wnt3a [2] = biological target: T1, Wnt3a; assay: Acyl-biotinyl exchange (ABE) analysis of Wnt3a produced from Tiki2-expressing cells; type: cell-based; parameters: expressed in transfected cells; host or cells: mouse L cells (Wnt3a-expressing); HEK293T; conditions: compared to Wnt3a from control cells
Description: FIG. 6C is a gel showing the results of Acyl-biotinyl exchange (ABE) analysis of control Wnt3a or Wnt3a produced from Tiki2-expressing cells. Biotinylation of Wnt3a secreted from Tiki2-expressing cells was much reduced compared to that of Wnt3a from control cells.
Biotinylation of Wnt3a secreted in the presence of Tiki2 was much reduced compared to that of Wnt3a from control cells (FIG. 6C). This reduction of available thioester linkage indicates depalmitoylation of Wnt3a at a cysteine residue, e.g., C77, in the presence of Tiki2

Wnt3a signaling = assay: TOPFLASH reporter assay, Wnt3a co-transfected with Tiki1 or Tiki2 in HEK293T cells; type: cell-based, human
Description: Wnt3a and Tiki1 or Tiki2 were co-transfected. The TOPFLASH reading (normalized to Renilla) in Wnt3a alone was set as 100. DNA transfection amounts are shown per well in a standard 24-well plate format. Representative data from one of three independent experiments is shown.
The enlarged head phenotype by Tiki1 overexpression is indistinguishable from that by overexpression of Dkk1, a Wnt/LRP6 antagonist (MacDonald, B. T. et al., Dev Cell 17, 9-26 (2009); Glinka, A. et al., Nature 391, 357-362 (1998)). […] Thus Tiki1 likely acts at or upstream of Wnt receptors. […] Xenopus Tiki2, and human Tiki1 and Tiki2 also behaved as Wnt antagonists in Xenopus embryos, HEK293T cells (FIG. 2C) and mouse L cells (FIG. 5A).

T1 sequence (P27467 19-352): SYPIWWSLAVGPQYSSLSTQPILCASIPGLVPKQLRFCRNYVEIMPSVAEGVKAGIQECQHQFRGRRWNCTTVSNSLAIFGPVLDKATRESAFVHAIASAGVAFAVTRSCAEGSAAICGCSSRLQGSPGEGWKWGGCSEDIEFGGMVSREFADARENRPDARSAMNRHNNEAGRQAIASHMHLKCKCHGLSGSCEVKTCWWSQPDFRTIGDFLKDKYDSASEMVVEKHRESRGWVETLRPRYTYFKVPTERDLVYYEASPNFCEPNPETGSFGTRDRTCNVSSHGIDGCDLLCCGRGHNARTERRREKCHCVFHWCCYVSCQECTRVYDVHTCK

B1: Tiki2: Human Tiki2 (XP 371250/LOC388630) (SEQ ID NO:2), expressed in L or HEK293T cells (protein, listed as Homo sapiens)
chain: MHAALAGPLLAALLATARARPQPPDGGQCRPPGSQRDLNSFLWTIRRDPPAYLFGTIHVPYTRVWDFIPDNSKAAFQASTRVYFELDLTDPYTISALASCQLLPHGENLQDVLPHELYWRLKRHLDYVKLMMPSWMTPAQRGKGLYADYLFNAIAGNWERKRPVWVMLMVNSLTERDVRFRGVPVLDLYLAQQAEKMKKTTGAVEQVEEQCHPLNNGLNFSQVLFALNQTLLQQESVRAGSLQASYTTEDLIKHYNCGDLSAVIFNHDTSQLPNFINTTLPPHEQVTAQEIDSYFRQELIYKRNERMGKRVMALLRENEDKICFFAFGAGHFLGNNTVIDILRQAGLEVDHTPAGQAIHSPAPQSPAPSPEGTSTSPAPVTPAAAVPEAPSVTPTAPPEDEDPALSPHLLLPDSLSQLEEFGRQRKWHKRQSTHQRPRQFNDLWVRIEDSTTASPPPLPLQPTHSSGTAKPPFQLSDQLQQQDPPGPASSSAPTLGLLPAIATTIAVCFLLHSLGPS
Reduction of Wnt3a acylation (Wnt3a [1]): about 31%
Biotinylation of secreted Wnt3a in ABE assay (Wnt3a [2]): much reduced
Wnt3a signaling, TOPFLASH reporter (Wnt3a signaling): inhibit Wnt3a signaling
